{"source": "the nanobody polyreactivity screen of Harvey et al. (2022)", "data": [{"assay": "yeast display, Sf9 membrane polyspecificity reagent, FACS + sequencing; frameworks hold sequencing errors", "summary_of_the_method": "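Genes from sorted yeast were amplified by colony PCR, read by MiSeq 2 × 250 sequencing and filtered on CDR length. These cells carried a synthetic nanobody library in Saccharomyces cerevisiae BJ5465 and were sorted by FACS into low and high (top ~1%) gates on anti-HA and streptavidin fluorescence. Polyreactivity is labelled according to the gate of origin.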", "values": [{"sequence": "QVQLVQSRGGLVQAGGSLRLSCSASGFIFIYNVMGWYRQAPGKERDMVAAINRGGSTKYADSVKGRFTISRDNAKITVYLQMNSLKPEDSAVYYCAARYDGSRYHYDGYDYWGQGTQVTVSS", "polyreactivity (PSR sort gate)": "low polyreactivity"}, {"sequence": "QVQLVQSVGGLVHAGGSLRLSCAASGRTYGVYAMGWYRQAPGKERELVAAITYSGGSTYYADSVKGRFTISRDNAKNTVYLQMNSLKPEDTAVYYCAAETRVGLYYVREVYYWGQGTQVTVSS", "polyreactivity (PSR sort gate)": "low polyreactivity"}, {"sequence": "QVQLVVSGGGLVQAGGSLRISCAASGITFGRYAMGRYRPAPGKERELVAAISWSGGSTYYADSVKGRFTISRDNAKNTVFLQMNSLKPEDTAVYYCALEWYYTSYHIRFYRDNYWGQGTQVTVSS", "polyreactivity (PSR sort gate)": "high polyreactivity"}, {"sequence": "QVQLVVSGGGLVQAGGSLRLSCAASGIIFVQYTMGWYRQAPGQERELDAAITRGGNTYYADSVKGRFTISRDNAKNTVYLQMNSLKPEATAVYYCNKAYWYANLRYRTGVKLQFYYWGQGTQVNVSS", "polyreactivity (PSR sort gate)": "high polyreactivity"}, {"sequence": "QVQLVVSGGGLVQAGGSLRLSCAASGITFFPYAMGWYRQAPGKERLLVASISDRGGTNYADSVKGRFTISRDNAKNTVYLQMNSLKPEDTAVYYSASDASTYAYYGGDYWGQGTQVTVSS", "polyreactivity (PSR sort gate)": "low polyreactivity"}, {"sequence": "QVQLVVSGGGLVQAGGSLRLSCAASGITFYEYAMGWYRQAPGKERELVAAISSSGCTTYYADSVKGLFTISRDNAKNTVYLQLNSLKPEDTAVYYCAVGQRFAIWGPQGSYFYFESDYWGQGTQVTVSS", "polyreactivity (PSR sort gate)": "low polyreactivity"}, {"sequence": "QVQLVVSGGGLVQAGGSLRLSCAASGRIFLWNAMGWYRQAPGKERDLVAAISSGGGTNYADSVKGRFTISRDNAKNSVYLQMNSLKPEDTAVYYCAARRTYRFGWGQGTQVTVSS", "polyreactivity (PSR sort gate)": "high polyreactivity"}, {"sequence": "QVQLVVSGGGLVQAGGSLRLSCAASGSIFVPYAMGWYRQAPGKEREFVAAITRSSGSTYYADSVKGRFTISRDNAKNTVYLQMNSLKPEDTAVYYCAADFLLEFDYWGQGTQVTVSS", "polyreactivity (PSR sort gate)": "low polyreactivity"}, {"sequence": "QVQLVVSGGGLVQAGGSLRLSCAASGSIFYRNAMGWYRQAPGKDRELVAAISFSGGSTYYADSVKARFSISRDNAKNTVYLQMNSLKPEDTAVYYCAAEAYPSWFYVITGFGIYDYWGQGTQGTVSS", "polyreactivity (PSR sort gate)": "high polyreactivity"}, {"sequence": "QVQLVVSGGGLVQAGGSLRLSWAASGIIFYEYAMGWYRQAPGTERELVAAITWSGRTYADSVKGRFTISRDNAKNTVYLQMNSLKPEDTAVYYCNAVYFGGPFFGQYNYWGQGTQVTVSS", "polyreactivity (PSR sort gate)": "low polyreactivity"}, {"sequence": "QVQLVVSGGGLVQEGGSLRLSCAAYGNTFFVYAMGGYRQAPGKERELDASITLSGDTTYYADSVKGRFTISRDNAKNPVYLQMNSLKPEDNAVYYCAAKDIRYDDDYWGQGTQVNVSS", "polyreactivity (PSR sort gate)": "low polyreactivity"}, {"sequence": "QVQLVYSGGGLVQAGGSLRLSCAASGIIFGVNAMGWYRQAPGKERELVAAISSSGGSTYYADSVKGRFTISRDNAKNTVYLQMNSLKPEDTAVYYCAASYYHYAPFDYWGQGTQVTVSS", "polyreactivity (PSR sort gate)": "high polyreactivity"}, {"sequence": "QVQLVYSGGGLVQAGGSLRLSCAASGSTFYRYAMGWYRQAPGKERELVATITRSGGSTYYADSVKGRFTISRDNAKNTVYLQMNRLKPEDTAVYYCAVRLWFYYNYWGQGTQVTVSS", "polyreactivity (PSR sort gate)": "low polyreactivity"}, {"sequence": "QVQNVDSGGGLVQAGGSLRLSCPPSGISYRGYAMGWYRQAPGKERELVAAISVRGASTYYAASVKGRFTISRDNAKYTVYLPMNSLKPEDTAVYYCGATRPSWRYNYWGQGTEVTVSS", "polyreactivity (PSR sort gate)": "high polyreactivity"}, {"sequence": "QVQPQESGVGLVQAGGSLRLSCAASGTIFAFQTMGWYRQAPGKERELVASITYGSSTNYADSVKGRFTISRDNAKNTVYLLMNRLKPEDTAVYYCAVPQAQYYYDYWGQGTQVTVSS", "polyreactivity (PSR sort gate)": "high polyreactivity"}, {"sequence": "QVQPVESGGGLVQAGGSLRLSCAASGFIFSSYAMGWYRQAPGKERELVAAITSGGSTNYADSVKGRFTISRDNAKNTVYLQMNSMKPEDTAVYYCATVPGGSWFFHWWSTGGDDEYWGQGTQVTVSS", "polyreactivity (PSR sort gate)": "low polyreactivity"}, {"sequence": "QVQPVESGGGLVQAGGSLRLSCAASGIIFISYDMGWYRQAPGKERELVARINWDGGSTYYADSVKGRFTISRDNAKNTVYLQMNSLKPEDTAVYYCAAGFVGTNYPLQGFSYEYWGQGTQVTVSS", "polyreactivity (PSR sort gate)": "low polyreactivity"}, {"sequence": "QVQPVESGGGLVQAGGSLRLSCDASGRIFYEYAMGRSRQAPGKERELVAISTSGGNTYYADSVKGRFTISRDNAKNTVYLQMKSLKPEDTEVYYCAKRGYRAYYWGQGTLVTVSS", "polyreactivity (PSR sort gate)": "high polyreactivity"}, {"sequence": "QVQQLESGGGLVQAGGSLRLSSAASGTIFRISDMGSYRQAPGTEREFVAAITYGANTYYADSGKGRFTISRDNAKNTVYRQMNSLKPDDTAVYDCAVPPVKESILDYWGQGTQVTVSR", "polyreactivity (PSR sort gate)": "low polyreactivity"}, {"sequence": "QVQQQESGGGLVQAGGSLRLSCAASGTIFQLTVMGRYRQASGKERELVASIDYGGNTNYADSVKGRFTISRDNAKNTVYLQMNSLKPEDTAVYYCEASSDSWTTHPYWGQGTQVTVSS", "polyreactivity (PSR sort gate)": "low polyreactivity"}, {"sequence": "QVQQQESGGGLVQAGVSLRLSWAASGTIFQLTVMGRYRQAPGKEREVVASIDYGGNTNYADSVKGRFTISRDNAKNTVYRQMNSLKPEDTAVYYCAASSDSSTTHPYWGQGTHVTVSS", "polyreactivity (PSR sort gate)": "low polyreactivity"}, {"sequence": "QVQRQESGGGLVQAGDSQRLSCAPSGNIFRFTDMGWYRQAPGQERELVAAINAGSTTYYADSVKGRFTISRDNAKNTVYLQMNSLKPEDTAVYYCAVYYLGSGTFGYWGQGAQVTVSS", "polyreactivity (PSR sort gate)": "high polyreactivity"}, {"sequence": "QVQRVDSGGGLVQAGGSLRLSCAASGFTFAVYAMGWYRQSPGKERELVAAISRSGTRTYYADSVKGRFTISRDNAKNTVYLQMNSLKPEDTAVYYCAADKYRLGYDYWGQGTQLTVSS", "polyreactivity (PSR sort gate)": "low polyreactivity"}, {"sequence": "QVQRVDSRGGLVQAGGSLRLSCAASGRIFRPNAMGWYRQAHGKQRELVAAITSNGGRTYYADSVKGRFTISRDNAKYTVYLQMNSLKPEDTAVYYCNAAPFRSGDGYWGQGTQVTVSS", "polyreactivity (PSR sort gate)": "high polyreactivity"}, {"sequence": "QVQRVESAGGLVQAGGSLRLSCAASGSTFLYNAMGWYRQAPGKERELVAAISWSGGSTYYADSVKGRFTISRDNAKNTVYLQMNSLKPEDTAVYYCAKPRSWGYNWGQGTQVTVSS", "polyreactivity (PSR sort gate)": "high polyreactivity"}, {"sequence": "QVQRVESGGALVQAGGSLRLSCAASGRIFGGYAMGWYRQAPGKERELVAAISSRGGSTYYADSVKGRFTISRDNAKNTVYLQMNSLKPEDTAVYYCAADGRVKGWGQGTQVTVSS", "polyreactivity (PSR sort gate)": "high polyreactivity"}, {"sequence": "QVQRVESGGALVQAGGSLRLSCAASGSTFYAYAMGWYRPAPGKERELVAAITYRDGRTYYADSVKGRFTISRDNAKNTVYLQMNRLKQEDTAVYYCARKTGFTVRRYDYWGHGTQVTVSS", "polyreactivity (PSR sort gate)": "high polyreactivity"}, {"sequence": "QVQRVESGGGFVQAGGSLRLSSAASGFTFGAYAMGWYRQAPGKEMELVASISWSGGSTYYADSVKGRFTISRVNAKNTVYLQMNSLKPEDTAVYYCNKDFVYPDDDGLFDYWGQGTQVTVSS", "polyreactivity (PSR sort gate)": "low polyreactivity"}, {"sequence": "QVQRVESGGGLFQAGGSLRLSCAASGITFRYYNMGWYRQAPGKERELVAAISSSGGSTYYADSVKGRFTISRDNAKNTVYLQMNSLKPEDTAVYYCAAESKYSTSSPRRDYWGQGTQVTVSS", "polyreactivity (PSR sort gate)": "high polyreactivity"}, {"sequence": "QVQRVESGGGLVKAGGRLRLSSAASGGTFKRYTMGWYRQAPGKETELVARIHYRTGSTYYADSVKGRFTISRDNAKNTVYLQMNSLKPEDTAVYYCAAREWYGFAFDYWGQGTQVTVSS", "polyreactivity (PSR sort gate)": "high polyreactivity"}, {"sequence": "QVQRVESGGGLVQAAGSLRLSCAASGRTFIYYAKGWYRHEPGKERELVAGISRNGGRTYYADSVKGRFTISRDNAKNTVYLQMNSLKPEDTAVYYCNAYPPSRHDYCGQGTQVTVSS", "polyreactivity (PSR sort gate)": "high polyreactivity"}, {"sequence": "QVQRVESGGGLVQAGASLRLSCAASGSTFDPYAKGWYRQAPGKERELVAAISGRGGSTYYADSVKGRFTISRDNAKNTLYLQMNSLKPEDTADYYCNAEGEYRRDRYDYWGQGTQVTVSS", "polyreactivity (PSR sort gate)": "low polyreactivity"}, {"sequence": "QVQRVESGGGLVQAGASLRLSCSASGRTFSRYAMGWYRQAPGKERELVAAIRGNSGNTYYADSVKGRFTISRDNAKNTVYLQMNSLKPEDTAVYYCAKPFNIWGQGTQVTVSS", "polyreactivity (PSR sort gate)": "high polyreactivity"}, {"sequence": "QVQRVESGGGLVQAGGRLRLTCAASARIIRWYAMGWNRQAPGKERELVAAISGSGGSTYYADSVKGRFTISRDNAKNTVYLQMNSLKPEDTAVYYCAKDRDPVRAHDCWGQGTQVTVSS", "polyreactivity (PSR sort gate)": "high polyreactivity"}, {"sequence": "QVQRVESGGGLVQAGGSLRLSCAASGFIFWRYAMGWYRQAPGKERELVATITSSGGTTHYADSVKGRFTISRDNAKNTVYLQMNSLKPEDTAVYYCAKALVVQYGRYTGHPYDYWGQGTQVTVSS", "polyreactivity (PSR sort gate)": "high polyreactivity"}, {"sequence": "QVQRVESGGGLVQAGGSLRLSCAASGFTFESYAMGWYRQAHGKERELVAAITWDGGSTYYADSVKGRFTISRDNAKNTVYLQMNSLKPEDTAVYDCAADFGTISIDVYSWMDYWGQGTQVTGSS", "polyreactivity (PSR sort gate)": "low polyreactivity"}, {"sequence": "QVQRVESGGGLVQAGGSLRLSCAASGFTFRWYAMGWYRQAPGKEREMVAAISRSGASTYYADSVKGRFTISRDNAKNTVYLQMNSLKPEDTAVYYCAVLWHGRRPLYKLRTGPEYDYWGQGTQVTVSS", "polyreactivity (PSR sort gate)": "high polyreactivity"}, {"sequence": "QVQRVESGGGLVQAGGSLRLSCAASGFTFVPYALGWYRPAPGQERELVAAISGSGGSTYYADSVKGRFTISRDNEKNTVYLQMNSLKPEDTAVYYCNADRRWAYYWGQGTQVTVSS", "polyreactivity (PSR sort gate)": "high polyreactivity"}, {"sequence": "QVQRVESGGGLVQAGGSLRLSCAASGIIFDRYAMGWYRPAPGKERELVAAISSSGGSTYYADSVKGRFTISRDNAKNTVYLQMISLKPEATAVYYCNARHRQWARGYWGQGTQVTVSS", "polyreactivity (PSR sort gate)": "high polyreactivity"}, {"sequence": "QVQRVESGGGLVQAGGSLRLSCAASGITFRGYAMGWYRQAPGKERELVAAINSRGGSTYYADSVKGRFTISRDNAKNTVYLQMNSLKPEDTAVYYCATRSFGRMDYWGQGTQVTVSS", "polyreactivity (PSR sort gate)": "high polyreactivity"}, {"sequence": "QVQRVESGGGLVQAGGSLRLSCAASGLIFVVYAMGWYRQAPGKERELVADISSGGRTSYADSVKGRFTISRDNAKNTVYLQMNSLKPEDTAVYYCNAYPVFNQYYGWRYDYWGQGTQVTVSS", "polyreactivity (PSR sort gate)": "low polyreactivity"}]}]}
